The values that follow are results of earlier work, collected in publication PMC12805100.

pKd: −log10 of the molar value. Where two headings read alike, the source gives them in different places.

Series [1] has as its target Calmodulin (Homo sapiens) (UniProt P0DP23).
Series [2] shares this target. This is another data set of the same source.

In general, pKd refers to −log10 of the Kd, conventionally taken in molar units. In the case of TRPA1 DCTCaMBE (from UniProt O75762), the pKd is 6.22 in series [1] and 7.00 in series [2].
